According to US20250282881A1 (SHANGHAI EPIMAB BIOTHERAPEUTICS, published 2025):
Numbering of substitutions follows the chain as printed.

T1: recombinant human OX40/His fusion protein (Novoprotein, CB17) (human, UniProt P43489 29-216)
T1 construct: Bought protein
T1 sequence: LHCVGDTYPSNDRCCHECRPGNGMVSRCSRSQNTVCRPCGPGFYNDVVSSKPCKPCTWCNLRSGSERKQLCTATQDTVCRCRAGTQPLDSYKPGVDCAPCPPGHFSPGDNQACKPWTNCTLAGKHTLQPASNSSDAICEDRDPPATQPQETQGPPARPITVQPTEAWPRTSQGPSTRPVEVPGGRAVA

B1: EM1007-mAb044c-15 (antibody, human IgG1, kappa, L234A L235A, V domains shown)
VH: EVQLVQSGAEVKKPGSSVKVSCKASGGTFSSSWMNWVRQRPGKGLEWMGRIYPGDEITNYNAKFKDRVTITADKSTSTAYMELSSLRSEDTAVYYCARDLLMPYWGQGTLVTVSS
VL: DIVMTQTAFSNPVTLGTSASISCRSSKSLLYSNAITYLYWYLQKPGQSPHLLIYQMSNLAPGVPDRFSSSGSGTDFTLRISRVEAEDVGIYYCAQNLELPFTFGSGTKLEIKR
B2: EM1007-mAb044c-17 (antibody, human IgG1, kappa, L234A L235A, V domains shown)
VH: B1 VH with V5Q, G27H, T28A, R38K, M48I, R67K, V68A, I70L
VL: B1 VL
B3: HuEM1007-044-14 (antibody, human IgG1, kappa, L234A L235A, V domains shown)
VH: B1 VH
VL: B1 VL with A8P, F9L, N11L, L15P, T17E, S18P, H50Q, R79K, I90V, S105Q
notes: Humanized anti-OX40, human IgG1 LALA / kappa
B4: HuEM1007-044-6 (antibody, human IgG1, kappa, L234A L235A, V domains shown)
VH: B1 VH with G27H, R40A, K43Q, A62G
VL: DIVMTQTPLSLPVTPGEPASISCRSSKSLLYSNGITYLYWYLQKPGQSPQLLIYQMSNLAPGVPDRFSSSGSGTDFTLKISRVEAEDVGVYYCAQNLELPFTFGQGTKLEIKR
notes: as for B3
B5: HuEM1007-044-2 (antibody, human IgG1, kappa, L234A L235A, V domains shown)
VH: B1 VH with G27H, R40A, K43Q, A62G
VL: B4 VL with S69G
notes: as for B3
B6: HuEM1007-044-5 (antibody, human IgG1, kappa, L234A L235A, V domains shown)
VH: B1 VH with R40A, K43Q, A62G
VL: B4 VL
notes: as for B3
B7: HuEM1007-044-1 (antibody, human IgG1, kappa, L234A L235A, V domains shown)
VH: B1 VH with R40A, K43Q, A62G
VL: B4 VL with S69G
notes: as for B3
B8: HuEM1007-044-3 (antibody, human IgG1, kappa, L234A L235A, V domains shown)
VH: B1 VH with G27H, R40A, K43Q, M48I, A62G, I70L
VL: B4 VL with S69G
notes: as for B3
B9: EM1007-mAb044c-13 (antibody, human IgG1, kappa, L234A L235A, V domains shown)
VH: B1 VH with R40A, K43Q, A62G
VL: B1 VL with A34G
B10: HuEM1007-044-4 (antibody, human IgG1, kappa, L234A L235A, V domains shown)
VH: B1 VH with G27H, R38K, R40A, M48I, A62G, R67K, I70L
VL: B4 VL with S69G
notes: as for B3
B11: EM1007-mAb044c-9 (antibody, human IgG1, kappa, L234A L235A, V domains shown)
VH: QVQLQQSGPELVKPGASVTISCKASGHAFSSSWMNWVKQRPGKGLEWIGRIYPGDEITNYNAKFKDKATLTADKSSSTAYMQLSSLTFEDSAVYFCARDLLMPYWGQGTLVTVSA
VL: B1 VL with A34G
B12: EM1007-mAb044c-12 (antibody, human IgG1, kappa, L234A L235A, V domains shown)
VH: B11 VH with A62G
VL: B4 VL with S69G
B13: EM1007-mAb044c-11 (antibody, human IgG1, kappa, L234A L235A, V domains shown)
VH: B11 VH
VL: B1 VL
B14: EM1007-mAb044c-10 (antibody, human IgG1, kappa, L234A L235A, V domains shown)
VH: B11 VH with A62G
VL: B1 VL
B15: HuEM1007-044-7 (antibody, human IgG1, kappa, L234A L235A, V domains shown)
VH: B1 VH with G27H, R40A, K43Q, M48I, A62G, I70L
VL: B4 VL
notes: as for B3
B16: HuEM1007-044-8 (antibody, human IgG1, kappa, L234A L235A, V domains shown)
VH: B1 VH with G27H, R38K, R40A, M48I, A62G, R67K, I70L
VL: B4 VL
notes: as for B3
B17: HuEM0005-86-21 (antibody, human IgG1, kappa, L234A L235A, V domains shown)
VH: QVQLVQSGSELKKPGASVKVSCKASGYTFTTYGINWVRQAPGQGLEWMGYIYIGNAYTEYNEKFKGRFVFSLDTSVSTAYLQICSLKAEDTAVYYCARDLMVIAPKTMDYWGQGTTVTVSS
VL: DIQMTQSPSSVSASVGDRVTITCKASQDVGTAVAWYQQKPGKAPKLLIYWASTRHTGVPSRFSGSGSGTDFTLTISSLQPEDFATYYCQQYSSYPYTFGGGTKVEIKR
notes: Humanized anti-PD-L1
B18: EM0005-86c-1 (antibody, V domains shown)
VH: QVQLQQSGAELVRPGSSVKMSCKTSGYTFTTYGINWVKQRPGQGLEWIGYIYIGNAYTEYNEKFKGKATLTSDPSSRTAYMQLSSLTSEDSAIYFCARDLMVIAPKTMDYWGQGTSVTVSS
VL: DIQMNQSHKFMSTSVGDRVSITCKASQDVGTAVAWYQQKPGQSPKLLIYWASTRHTGVPDRFTGGGSGTDFTLTISNVQSEDLADYFCQQYSSYPYTFGGGTKLEMK
notes: Chimeric variant of EM0005-86c

Target: T1, recombinant human OX40/His fusion …
Test: BLI (Octet RED96), antibody on AHC sensor, OX40/His as analyte, test group 4
Experimental: (§1) All 17 antibodies in Table 4 were expressed by transient transfection of HEK293 cell, purified by Protein A chromatography, and assayed for and ranked by dissociation rate constant (koff). Briefly, antibodies binding affinities and kinetics were characterized by Octet® RED96 biolayer interferometry (Pall FortéBio LLC). Antibodies were captured by Anti-hIgG Fc Capture (AHC) Biosensors (Pall) at a concentration of 100 nM for 120 seconds. After that, sensors were dipped into running buffer (1× pH 7.2 PBS, 0.05% Tween 20, 0.1% BSA) for 60 seconds to check the baseline, then dipped into recombinant human OX40/His fusion protein (Novoprotein, CB17) at assigned concentration for 200 seconds to measure binding, followed by dipped into running buffer for 600 seconds for dissociation. The assay was conducted in four test groups (as listed in Table 5) all containing the EM1007-044c chimeric antibody as the basis for normalization. The association and dissociation curves were fitted to a 1:1 Langmuir binding model using ForteBio Data Analysis software (Pall) to obtain the off-rate constants as shown in Table 5 below. The off-rate of each antibody was compared to that of the EM1007-mAb044c chimeric antibody in the same test group obtained in parallel to produce the corresponding off-rate ratio, serving as a normalized index. […]

Normalized Index (off-rate ratio to EM1007-mAb044c) | koff | Binder
340% | 0.000949 s⁻¹ | B1
92% | 0.000256 s⁻¹ | B2
341% | 0.000952 s⁻¹ | B3

Target: T1, recombinant human OX40/His fusion …
Test: BLI (Octet RED96), antibody on AHC sensor, OX40/His as analyte, test group 1
Experimental: as §1

Normalized Index (off-rate ratio to EM1007-mAb044c) | koff | Binder
331% | 0.00111 s⁻¹ | B4
281% | 0.000944 s⁻¹ | B5
243% | 0.000818 s⁻¹ | B6
306% | 0.00103 s⁻¹ | B7
255% | 0.000859 s⁻¹ | B8

Target: T1, recombinant human OX40/His fusion …
Test: BLI (Octet RED96), antibody on AHC sensor, OX40/His as analyte, test group 3
Experimental: as §1

Normalized Index (off-rate ratio to EM1007-mAb044c) | koff | Binder
427% | 0.0013 s⁻¹ | B9
486% | 0.00148 s⁻¹ | B10

Target: T1, recombinant human OX40/His fusion …
Test: BLI (Octet RED96), antibody on AHC sensor, OX40/His as analyte, test group 2
Experimental: as §1

Normalized Index (off-rate ratio to EM1007-mAb044c) | koff | Binder
97% | 0.000309 s⁻¹ | B11
255% | 0.00081 s⁻¹ | B12
100% | 0.000317 s⁻¹ | B13
94% | 0.000299 s⁻¹ | B14
343% | 0.00109 s⁻¹ | B15
317% | 0.00101 s⁻¹ | B16

Target: T2, recombinant human PD-L1/His fusion protein (Novoprotein, Cat. No. C315) (human, UniProt Q9NZQ7 19-239)
T2 construct: also called recombinant human PD-L1-his protein
Test: BLI (Octet RED96), antibody on AHC sensor, PD-L1/His as analyte, test group 1
Excerpt: Based on titer and purity, 10 of the 50 humanized antibodies were selected and further assayed in two groups for dissociation rate constant (koff) as shown in Table 7. Chimeric antibody EM0005-86c having VH/VL sequences identical to EM0005-mAb86 (as provided in Table 6) was used as a positive control in each group and served as a basis for normalization. Briefly, antibodies were characterized for affinities and binding kinetics by Octet® RED96 biolayer interferometry (Pall FortéBio LLC). Anti-hIgG Fc Capture (AHC) Biosensors (Pall) with antibody captured at a concentration of 100 nM for 120 seconds were dipped into running buffer (1× pH 7.2 PBS, 0.05% Tween 20, 0.1% BSA) for 60 seconds to check the baseline, then dipped into a single concentration of recombinant human PD-L1/His fusion protein (Novoprotein, Cat. No. C315) to measure binding for 200 seconds, followed by dipped into running buffer to measure dissociation for 600 seconds. The association and dissociation curves were fitted to a 1:1 Langmuir binding model using FortéBio Data Analysis software (Pall). The off-rate ratios shown in Table 7 were calculated by off-rate of a humanized antibody to that of EM0005-86c in the same test group. The off-rate ratio serves as a normalized index, so that the humanized antibodies can be compared to one another across test groups. The lower off-rate ratio indicates higher affinity of an antibody for human PD-L1. HuEM0005-86-21 was selected for further investigation based on the purity and off-rate data.

T2 sequence (Q9NZQ7 19-239 limits assumed): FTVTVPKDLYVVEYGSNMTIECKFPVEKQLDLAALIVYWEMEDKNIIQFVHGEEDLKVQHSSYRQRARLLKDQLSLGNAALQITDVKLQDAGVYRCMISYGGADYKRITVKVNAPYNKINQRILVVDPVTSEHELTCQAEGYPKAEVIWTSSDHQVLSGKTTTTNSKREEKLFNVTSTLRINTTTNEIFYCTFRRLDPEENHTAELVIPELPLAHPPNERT

Off-Rate Ratio to EM0005-86c | koff | Binder
88% | 0.000239 s⁻¹ | B17
69% | 0.000188 s⁻¹ | B18
